In assay [1] the target is T1, recombinant IL-3Rα ectodomain (UniProt P26951 19-305, limits assumed).
T1 construct: extracellular domain; also called IL-3Ra ectodomain; recombinant IL-3Ra
T1 sequence (looked up): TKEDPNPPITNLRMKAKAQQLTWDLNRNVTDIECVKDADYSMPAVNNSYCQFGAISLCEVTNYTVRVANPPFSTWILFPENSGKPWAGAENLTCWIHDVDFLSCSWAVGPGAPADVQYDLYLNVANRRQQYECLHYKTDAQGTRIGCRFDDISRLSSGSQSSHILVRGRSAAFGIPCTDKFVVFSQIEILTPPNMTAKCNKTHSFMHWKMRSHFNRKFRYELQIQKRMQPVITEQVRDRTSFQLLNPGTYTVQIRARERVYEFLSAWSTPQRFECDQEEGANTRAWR
The assay is described as follows: ELISA, recombinant IL-3Ra. (ELISA stands for enzyme-linked immunosorbent assay.)

For assay [2], the target named is human CXCR4 (on cells, membrane extracts or viral lipoparticles) (human, UniProt P61073 1-352). The assay is described as follows: cell-based or functional assay.
Assay [3] has as its target T2, human CD4, cell-expressed (human, UniProt P01730 26-458).
T2 construct: whole, on cells
Description: FACS, MOLM-13 cells. Background: A flow cytometer gives signals particle by particle.

Chain of human CXCR4 (on cells, membrane extracts or viral lipoparticles) (P61073 whole entry): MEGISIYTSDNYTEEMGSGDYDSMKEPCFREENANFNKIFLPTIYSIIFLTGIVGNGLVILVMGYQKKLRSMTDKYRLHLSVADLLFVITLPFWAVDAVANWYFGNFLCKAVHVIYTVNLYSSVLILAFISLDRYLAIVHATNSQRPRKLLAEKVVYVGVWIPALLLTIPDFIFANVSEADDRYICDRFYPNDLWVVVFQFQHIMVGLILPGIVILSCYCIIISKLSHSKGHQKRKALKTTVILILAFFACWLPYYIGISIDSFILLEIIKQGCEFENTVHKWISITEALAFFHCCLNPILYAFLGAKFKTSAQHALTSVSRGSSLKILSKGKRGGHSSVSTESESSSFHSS

B1: 14D09-55A01 (4CXCR014D09(Q108L)-35GS-A0110055A01) (bispecific antibody)
chain: EVQLVESGGGLVQAGGSLRLSCVASGISSSKRNMGWYRQAPGKQRESVATISSGGNKDYTDAVKDRFTISRDTTKNTVYLQMNSLKPEDTAVYYCKIEAGTGWATRRGYTYWGQGTLVTVSSGGGGSGGGGSGGGGSGGGGSGGGGSGGGGSGGGGSEVQLVESGGGSVQAGGSLRLSCTTSGRALNMYVMGWFRQAPGNEREFVAATSSSGGSTSYPDSVKGRFTISRDNAKNTVYLQMNSLKPEDTAAYRCAASPYVSTPTMNILEEYRYWGQGTLVTVSSAAAEQKLISEEDLNGAAHHHHHH
notes: the entry carries a c-myc-His6 tag; also made as Flag3-His6-tagged protein; also called CXCR4#1-CD123#2; BI#7/19
Turning to B1, in assay [1], the binding result is listed as “binds”. In assay [2], the “Fold inc. vs anti-CXCR4 building block, Jurkat E6-1” value came to 0.87 fold; the “Fold inc. vs anti-CXCR4 building block, MOLM-13” value was determined as 2.39 fold; the “IC50, CXCL-12 induced chemotaxis, Jurkat E6-1” value (shortened to “IC50 … Jurkat E6-1”) worked out at 12 nM; the “IC50, CXCL-12 induced chemotaxis, MOLM-13” value (from here on “IC50 … MOLM-13”) was 3.6 nM.

B2: 55A01-281F12 (A0110055A01-35GS-4CXCR281F12(Q108L)) (bispecific antibody)
chain: EVQLVESGGGSVQAGGSLRLSCTTSGRALNMYVMGWFRQAPGNEREFVAATSSSGGSTSYPDSVKGRFTISRDNAKNTVYLQMNSLKPEDTAAYRCAASPYVSTPTMNILEEYRYWGQGTLVTVSSGGGGSGGGGSGGGGSGGGGSGGGGSGGGGSGGGGSEVQLVESGGGLVQAGDSLRLSCAASGRAFSRYAMGWFRQAPGKEREFVAAIGWGPSKTNYADSVKGRFTISRDNAKNTVYLQMNTLKPEDTAVYSCAAKFVNTDSTWSRSEMYTYWGQGTLVTVSSAAAEQKLISEEDLNGAAHHHHHH
notes: the entry carries a c-myc-His6 tag; also made as Flag3-His6-tagged protein; also called CD123#2-CXCR4#2; BI#15/24
B2: the binding result in assay [1] is “binds”.

B3: 57A07-14D09 (A0110057A07-35GS-4CXCR014D09(Q108L)) (bispecific antibody)
chain: EVQLVESGGGLVQAGGSLRLSCAASGSIFSGNVMGWYRRQAPGKEREWVAAIASGGSIYYRDSVKGRFTISRDNAKNTVYLQMNSLKPEDTAVYYCNSHPPTLPYWGQGTLVTVSSGGGGSGGGGSGGGGSGGGGSGGGGSGGGGSGGGGSEVQLVESGGGLVQAGGSLRLSCVASGISSSKRNMGWYRQAPGKQRESVATISSGGNKDYTDAVKDRFTISRDTTKNTVYLQMNSLKPEDTAVYYCKIEAGTGWATRRGYTYWGQGTLVTVSSAAAEQKLISEEDLNGAAHHHHHH
notes: the entry carries a c-myc-His6 tag; for the cell assays the construct was recloned and made in Pichia as Flag3-His6-tagged protein; also called CD123#1-CXCR4#1; BI#11/23
As for B3, the binding result in assay [1] was “binds”. In assay [2], the “Fold inc. vs anti-CXCR4 building block, Jurkat E6-1” value stood at 0.05 fold and the “IC50 … Jurkat E6-1” value is 210 nM.

B4: IL12Rb1#30-CD4#8 (bispecific antibody)
chain: EVQLVESGGGLVQTGGSLRLSCAASGRTPRLVAMGWFRQTPGKEREFVGEIILSKGFTYYADSVKGRFTISRVNAKNTITMYLQMNSLKSEDTAVYYCAGRQNWSGSPARTNEYEYWGQGTLVTVSSGGGGSGGGGSGGGGSGGGGSGGGGSGGGGSGGGGSEVQLVESGGGSVQPGGSLTLSCGTSGRTFNVMGWFRQAPGKEREFVAAVRWSSTGIYYTQYADSVKSRFTISRDNAKNTVYLEMNSLKPEDTAVYYCAADTYNSNPARWDGYDFRGQGTLVTVSS
notes: also called BI#46; T023200046
B4: the binding result in assay [3] was “binds”.

B5: IL12Rb1#31-CD4#8 (bispecific antibody)
chain: EVQLVESGGGLVQTGGSLRLSCAASGRTPSIIAMGWFRQTPGKEREFVGEIILSKGFTYYADSVKGRFTISRANAKNTITMYLQMNSLKSEDTAVYYCAARQNWSGNPTRTNEYEYWGQGTLVTVSSGGGGSGGGGSGGGGSGGGGSGGGGSGGGGSGGGGSEVQLVESGGGSVQPGGSLTLSCGTSGRTFNVMGWFRQAPGKEREFVAAVRWSSTGIYYTQYADSVKSRFTISRDNAKNTVYLEMNSLKPEDTAVYYCAADTYNSNPARWDGYDFRGQGTLVTVSS
notes: also called BI#47; T023200047
As to B5, in assay [3], the binding result is listed as “binds”.

B6: CD4#8-IL23R#19 (bispecific antibody)
chain: EVQLVESGGGSVQPGGSLTLSCGTSGRTFNVMGWFRQAPGKEREFVAAVRWSSTGIYYTQYADSVKSRFTISRDNAKNTVYLEMNSLKPEDTAVYYCAADTYNSNPARWDGYDFRGQGTLVTVSSGGGGSGGGGSGGGGSGGGGSGGGGSGGGGSGGGGSEVQLVESGGGLVQPGGSLTLSCVASGRTFSTDVMGWFRQAPGKEREFVAAHRTSGISTVYAASVKGRFTISRDNAKNTVYLGMKSLKPEDTAVYVCAAGSDASGGYDYWGQGTLVTVSS
notes: also called BI#45; T023200045
Take B6: in assay [3], the binding result is recorded as “binds”.

B7: IL23R#20-CD4#8 (bispecific antibody)
chain: EVQLVESGGGLVQAGGSLRLSCAASGRTFSSYAMGWFRQAPGKDREFVAAISWIGESTYYADSVKGRFTISRDNAKNTVYLRMNSLKPEDTAVYYCAADLYYTAYVAAADEYDYWGQGTLVTVSSGGGGSGGGGSGGGGSGGGGSGGGGSGGGGSGGGGSEVQLVESGGGSVQPGGSLTLSCGTSGRTFNVMGWFRQAPGKEREFVAAVRWSSTGIYYTQYADSVKSRFTISRDNAKNTVYLEMNSLKPEDTAVYYCAADTYNSNPARWDGYDFRGQGTLVTVSS
notes: also called BI#43; T023200043
For the molecule B7, in assay [3], the binding result is given as “binds”.

B8: 14D09-57A07 (4CXCR014D09(Q108L)-35GS-A0110057A07) (bispecific antibody)
chain: EVQLVESGGGLVQAGGSLRLSCVASGISSSKRNMGWYRQAPGKQRESVATISSGGNKDYTDAVKDRFTISRDTTKNTVYLQMNSLKPEDTAVYYCKIEAGTGWATRRGYTYWGQGTLVTVSSGGGGSGGGGSGGGGSGGGGSGGGGSGGGGSGGGGSEVQLVESGGGLVQAGGSLRLSCAASGSIFSGNVMGWYRRQAPGKEREWVAAIASGGSIYYRDSVKGRFTISRDNAKNTVYLQMNSLKPEDTAVYYCNSHPPTLPYWGQGTLVTVSSAAAEQKLISEEDLNGAAHHHHHH
notes: the entry carries a c-myc-His6 tag; also made as Flag3-His6-tagged protein; also called CXCR4#1-CD123#1; BI#16/20
For B8, the binding result in assay [1] is “binds”. For the same molecule, in assay [2], the “Fold inc. vs anti-CXCR4 building block, Jurkat E6-1” value was determined as 0.69 fold; the “Fold inc. vs anti-CXCR4 building block, MOLM-13” value is 2.39 fold; the “IC50 … Jurkat E6-1” value is 15 nM; the “IC50 … MOLM-13” value was 3.6 nM.

B9: 281F12-57A07 (4CXCR281F12(Q108L)-35GS-A0110057A07) (bispecific antibody)
chain: EVQLVESGGGLVQAGDSLRLSCAASGRAFSRYAMGWFRQAPGKEREFVAAIGWGPSKTNYADSVKGRFTISRDNAKNTVYLQMNTLKPEDTAVYSCAAKFVNTDSTWSRSEMYTYWGQGTLVTVSSGGGGSGGGGSGGGGSGGGGSGGGGSGGGGSGGGGSEVQLVESGGGLVQAGGSLRLSCAASGSIFSGNVMGWYRRQAPGKEREWVAAIASGGSIYYRDSVKGRFTISRDNAKNTVYLQMNSLKPEDTAVYYCNSHPPTLPYWGQGTLVTVSSAAAEQKLISEEDLNGAAHHHHHH
notes: the entry carries a c-myc-His6 tag; also made as Flag3-His6-tagged protein; also called CXCR4#2-CD123#1; BI#4/18
As for B9, the binding result in assay [1] is reported as “binds”. In addition, in assay [2], the “Fold inc. vs anti-CXCR4 building block, Jurkat E6-1” value is 2.55 fold; the “Fold inc. vs anti-CXCR4 building block, MOLM-13” value was 12.6 fold; the “IC50 … Jurkat E6-1” value amounted to 38 nM; the “IC50 … MOLM-13” value is 6.83 nM.

B10: CD4#8-IL23R#20 (bispecific antibody)
chain: EVQLVESGGGSVQPGGSLTLSCGTSGRTFNVMGWFRQAPGKEREFVAAVRWSSTGIYYTQYADSVKSRFTISRDNAKNTVYLEMNSLKPEDTAVYYCAADTYNSNPARWDGYDFRGQGTLVTVSSGGGGSGGGGSGGGGSGGGGSGGGGSGGGGSGGGGSEVQLVESGGGLVQAGGSLRLSCAASGRTFSSYAMGWFRQAPGKDREFVAAISWIGESTYYADSVKGRFTISRDNAKNTVYLRMNSLKPEDTAVYYCAADLYYTAYVAAADEYDYWGQGTLVTVSS
notes: also called BI#44; T023200044
Regarding B10, the binding result in assay [3] is “binds”.

B11: 55A01-14D09 (A0110055A01-35GS-4CXCR014D09(Q108L)) (bispecific antibody)
chain: EVQLVESGGGSVQAGGSLRLSCTTSGRALNMYVMGWFRQAPGNEREFVAATSSSGGSTSYPDSVKGRFTISRDNAKNTVYLQMNSLKPEDTAAYRCAASPYVSTPTMNILEEYRYWGQGTLVTVSSGGGGSGGGGSGGGGSGGGGSGGGGSGGGGSGGGGSEVQLVESGGGLVQAGGSLRLSCVASGISSSKRNMGWYRQAPGKQRESVATISSGGNKDYTDAVKDRFTISRDTTKNTVYLQMNSLKPEDTAVYYCKIEAGTGWATRRGYTYWGQGTLVTVSSAAAEQKLISEEDLNGAAHHHHHH
notes: the entry carries a c-myc-His6 tag; also made as Flag3-His6-tagged protein; also called CD123#2-CXCR4#1; BI#8/22
As to B11, in assay [1], the binding result is “binds”. In addition, in assay [2], the “Fold inc. vs anti-CXCR4 building block, Jurkat E6-1” value is 0.12 fold; the “Fold inc. vs anti-CXCR4 building block, MOLM-13” value worked out at 0.03 fold; the “IC50 … Jurkat E6-1” value is 85 nM; the “IC50 … MOLM-13” value stood at 290 nM.

B12: 57A07-281F12 (A0110057A07-35GS-4CXCR281F12(Q108L)) (bispecific antibody)
chain: EVQLVESGGGLVQAGGSLRLSCAASGSIFSGNVMGWYRRQAPGKEREWVAAIASGGSIYYRDSVKGRFTISRDNAKNTVYLQMNSLKPEDTAVYYCNSHPPTLPYWGQGTLVTVSSGGGGSGGGGSGGGGSGGGGSGGGGSGGGGSGGGGSEVQLVESGGGLVQAGDSLRLSCAASGRAFSRYAMGWFRQAPGKEREFVAAIGWGPSKTNYADSVKGRFTISRDNAKNTVYLQMNTLKPEDTAVYSCAAKFVNTDSTWSRSEMYTYWGQGTLVTVSSAAAEQKLISEEDLNGAAHHHHHH
notes: the entry carries a c-myc-His6 tag; also made as Flag3-His6-tagged protein; also called CD123#1-CXCR4#2; BI#10/21
Consider B12, for which the binding result in assay [1] was “binds”.

B13: CD4#8-IL12Rb1#30 (bispecific antibody)
chain: EVQLVESGGGSVQPGGSLTLSCGTSGRTFNVMGWFRQAPGKEREFVAAVRWSSTGIYYTQYADSVKSRFTISRDNAKNTVYLEMNSLKPEDTAVYYCAADTYNSNPARWDGYDFRGQGTLVTVSSGGGGSGGGGSGGGGSGGGGSGGGGSGGGGSGGGGSEVQLVESGGGLVQTGGSLRLSCAASGRTPRLVAMGWFRQTPGKEREFVGEIILSKGFTYYADSVKGRFTISRVNAKNTITMYLQMNSLKSEDTAVYYCAGRQNWSGSPARTNEYEYWGQGTLVTVSS
notes: also called BI#40; T023200040
In the case of B13, the binding result in assay [3] is given as “binds”.

B14: CD4#8-IL12Rb1#31 (bispecific antibody)
chain: EVQLVESGGGSVQPGGSLTLSCGTSGRTFNVMGWFRQAPGKEREFVAAVRWSSTGIYYTQYADSVKSRFTISRDNAKNTVYLEMNSLKPEDTAVYYCAADTYNSNPARWDGYDFRGQGTLVTVSSGGGGSGGGGSGGGGSGGGGSGGGGSGGGGSGGGGSEVQLVESGGGLVQTGGSLRLSCAASGRTPSIIAMGWFRQTPGKEREFVGEIILSKGFTYYADSVKGRFTISRANAKNTITMYLQMNSLKSEDTAVYYCAARQNWSGNPTRTNEYEYWGQGTLVTVSS
notes: also called BI#41; T023200041
As for B14, the binding result in assay [3] is reported as “binds”.

(Values after patent US20220242958A1 (published 2022).)
